{
  "source": "IntAct's records for PubMed 31515488",
  "parents": {"B1": {"name": "Filamin-binding LIM protein 1 (Homo sapiens), Q8WUP2 (parent)", "chain": "MASKPEKRVASSVFITLAPPRRDVAVAEEVRQAVCEARRGRPWEAPAPMKTPEAGLAGRPSPWTTPGRAAATVPAAPMQLFNGGCPPPPPVLDGEDVLPDLDLLPPPPPPPPVLLPSEEEAPAPMGASLIADLEQLHLSPPPPPPQAPAEGPSVQPGPLRPMEEELPPPPAEPVEKGASTDICAFCHKTVSPRELAVEAMKRQYHAQCFTCRTCRRQLAGQSFYQKDGRPLCEPCYQDTLERCGKCGEVVRDHIIRALGQAFHPSCFTCVTCARCIGDESFALGSQNEVYCLDDFYRKFAPVCSICENPIIPRDGKDAFKIECMGRNFHENCYRCEDCRILLSVEPTDQGCYPLNNHLFCKPCHVKRSAAGCC", "partner": "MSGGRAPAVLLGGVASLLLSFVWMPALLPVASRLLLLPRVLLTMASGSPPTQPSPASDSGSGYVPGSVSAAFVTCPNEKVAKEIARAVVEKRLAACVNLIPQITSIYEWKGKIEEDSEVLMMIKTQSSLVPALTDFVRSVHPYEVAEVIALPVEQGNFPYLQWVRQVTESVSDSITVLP"}, "B2": {"name": "ATP synthase mitochondrial F1 complex assembly factor 2 (Homo sapiens), Q8N5M1 (parent)", "chain": "MWRSCLRLRDGGRRLLNRPAGGPSASMSPGPTIPSPARAYAPPTERKRFYQNVSITQGEGGFEINLDHRKLKTPQAKLFTVPSEALAIAVATEWDSQQDTIKYYTMHLTTLCNTSLDNPTQRNKDQLIRAAVKFLDTDTICYRVEEPETLVELQRNEWDPIIEWAEKRYGVEISSSTSIMGPSIPAKTREVLVSHLASYNTWALQGIEFVAAQLKSMVLTLGLIDLRLTVEQAVLLSRLEEEYQIQKWGNIEWAHDYELQELRARTAAGTLFIHLCSESTTVKHKLLKE"}, "B3": {"name": "Signal transducing adapter molecule 1 (Homo sapiens), Q92783 (parent)", "chain": "MPLFATNPFDQDVEKATSEMNTAEDWGLILDICDKVGQSRTGPKDCLRSIMRRVNHKDPHVAMQALTLLGACVSNCGKIFHLEVCSRDFASEVSNVLNKGHPKVCEKLKALMVEWTDEFKNDPQLSLISAMIKNLKEQGVTFPAIGSQAAEQAKASPALVAKDPGTVANKKEEEDLAKAIELSLKEQRQQSTTLSTLYPSTSSLLTNHQHEGRKVRAIYDFEAAEDNELTFKAGEIITVLDDSDPNWWKGETHQGIGLFPSNFVTADLTAEPEMIKTEKKTVQFSDDVQVETIEPEPEPAFIDEDKMDQLLQMLQSTDPSDDQPDLPELLHLEAMCHQMGPLIDEKLEDIDRKHSELSELNVKVMEALSLYTKLMNEDPMYSMYAKLQNQPYYMQSSGVSGSQVYAGPPPSGAYLVAGNAQMSHLQSYSLPPEQLSSLSQAVVPPSANPALPSQQTQAAYPNTMVSSVQGNTYPSQAPVYSPPPAATAAAATADVTLYQNAGPNMPQVPNYNLTSSTLPQPGGSQQPPQPQQPYSQKALL"}, "B4": {"name": "Protein LDOC1 (Homo sapiens), O95751 (parent)", "chain": "MVDELVLLLHALLMRHRALSIENSQLMEQLRLLVCERASLLRQVRPPSCPVPFPETFNGESSRLPEFIVQTASYMLVNENRFCNDAMKVAFLISLLTGEAEEWVVPYIEMDSPILGDYRAFLDEMKQCFGWDDDEDDDDEEEEDDY", "partner": "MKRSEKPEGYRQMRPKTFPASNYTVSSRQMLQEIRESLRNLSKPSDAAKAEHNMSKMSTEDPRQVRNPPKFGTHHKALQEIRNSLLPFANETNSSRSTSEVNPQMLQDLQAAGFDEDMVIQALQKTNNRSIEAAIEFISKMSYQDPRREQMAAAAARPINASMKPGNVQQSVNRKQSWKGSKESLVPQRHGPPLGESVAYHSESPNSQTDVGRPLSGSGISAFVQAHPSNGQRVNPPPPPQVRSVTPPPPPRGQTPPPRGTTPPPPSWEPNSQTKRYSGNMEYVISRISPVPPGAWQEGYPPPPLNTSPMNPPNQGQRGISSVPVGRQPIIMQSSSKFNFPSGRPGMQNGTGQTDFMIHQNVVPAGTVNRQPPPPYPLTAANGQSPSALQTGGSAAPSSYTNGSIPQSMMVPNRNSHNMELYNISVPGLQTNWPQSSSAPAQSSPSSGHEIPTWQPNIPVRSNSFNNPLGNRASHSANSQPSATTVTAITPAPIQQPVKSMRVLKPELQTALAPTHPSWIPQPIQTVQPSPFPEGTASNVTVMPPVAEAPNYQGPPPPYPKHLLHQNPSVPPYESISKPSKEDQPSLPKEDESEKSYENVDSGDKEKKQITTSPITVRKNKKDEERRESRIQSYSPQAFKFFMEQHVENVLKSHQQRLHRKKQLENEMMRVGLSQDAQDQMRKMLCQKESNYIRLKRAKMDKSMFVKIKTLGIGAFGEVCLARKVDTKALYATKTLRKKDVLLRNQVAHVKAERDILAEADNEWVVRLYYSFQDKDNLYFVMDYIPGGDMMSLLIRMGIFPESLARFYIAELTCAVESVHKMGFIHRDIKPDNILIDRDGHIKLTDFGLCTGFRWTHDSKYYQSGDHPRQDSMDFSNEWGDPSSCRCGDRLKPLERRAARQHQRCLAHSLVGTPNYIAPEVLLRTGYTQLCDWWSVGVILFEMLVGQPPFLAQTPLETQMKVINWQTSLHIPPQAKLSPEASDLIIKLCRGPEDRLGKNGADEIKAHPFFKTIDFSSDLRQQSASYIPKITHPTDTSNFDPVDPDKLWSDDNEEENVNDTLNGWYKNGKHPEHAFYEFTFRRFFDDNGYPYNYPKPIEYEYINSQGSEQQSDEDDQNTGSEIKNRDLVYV"}},
  "data": [
    {"variants_of": "B1", "details": "with cuta_human CUTA", "values": [
      {"variant": "MASKPEKRVASSVFITLAPPRRDVAVAEEVRQAVCEARRGRPWEAPAPMKTPEAGLAGRPSPWTTPGRAAATVPAAPMQLFNGGCPPPPPVLDGEDVLPDLDLLPPPPPPPPVLLPSEEEAPAPMGASLIADLEQLHLSPPPPPPQAPAEGPSVQPGPLRPMEEELPPPPAEPVEKGASTDICAFCHKTVSPRELAVEAMKRQCHAQCFTCRTCRRQLAGQSFYQKDGRPLCEPCYQDTLERCGKCGEVVRDHIIRALGQAFHPSCFTCVTCARCIGDESFALGSQNEVYCLDDFYRKFAPVCSICENPIIPRDGKDAFKIECMGRNFHENCYRCEDCRILLSVEPTDQGCYPLNNHLFCKPCHVKRSAAGCC", "note": "[Y204C]", "effect of a mutation on the interaction": "disrupting interaction strength"}
    ]},
    {"variants_of": "B2", "details": "with tri23_human TRIM23, P36406", "values": [
      {"variant": "MWRSCLRLRDGGRRLLNRPAGGPSASMSPGPTIPSPARAYAPPTERKRFYQNVSITQGEGGFEINLDHRKLKTPQAKLFTVPSEALAIAVATEWDSQQDTIKYYTMHLTTLCNTSLDNPTQRNKDQLIRAAVKFLDTDTICYRVEEPETLVELQRNEWDPIIEWAEKRYGVEISSSTSIMGPSIPAKTREVLVSHLASYNTWALQGIEFVAAQLKSMVLTLGLIDLRLTVEQAVLLSRLEGEYQIQKWGNIEWAHDYELQELRARTAAGTLFIHLCSESTTVKHKLLKE", "note": "[E241G]", "effect of a mutation on the interaction": "with no effect"}
    ]},
    {"variants_of": "B2", "details": "with ews_human EWSR1, Q01844", "values": [
      {"variant": "MWRSCLRLRDGGRRLLNRPAGGPSASMSPGPTIPSPARAYAPPTERKRFYQNVSITQGEGGFEINLDHRKLKTPQAKLFTVPSEALAIAVATEWDSQQDTIKYYTMHLTTLCNTSLDNPTQRNKDQLIRAAVKFLDTDTICYRVEEPETLVELQRNEWDPIIEWAEKRYGVEISSSTSIMGPSIPAKTREVLVSHLASYNTWALQGIEFVAAQLKSMVLTLGLIDLRLTVEQAVLLSRLEGEYQIQKWGNIEWAHDYELQELRARTAAGTLFIHLCSESTTVKHKLLKE", "note": "[E241G]", "effect of a mutation on the interaction": "with no effect"}
    ]},
    {"variants_of": "B3", "details": "with hgs_human HGS", "values": [
      {"variant": "I343T", "effect of a mutation on the interaction": "with no effect"},
      {"variant": "I350T", "effect of a mutation on the interaction": "with no effect"},
      {"variant": "A367T", "effect of a mutation on the interaction": "with no effect"},
      {"variant": "V61I", "effect of a mutation on the interaction": "with no effect"}
    ]},
    {"variants_of": "B4", "details": "with lats1_human LATS1, O95835", "values": [
      {"variant": "L12H", "effect of a mutation on the interaction": "disrupting interaction strength"}
    ]}
  ]
}
